{"source": "the DeepSol protein solubility set"}
{"experiment": "soluble on expression in E. coli; label from the status in PepcDB or PDB records"}
{"sequence": "MIVDSISSSTASTSSSSPTRGTPIRKSLQCAVCGDVALGKHYGVNACNGCKGFFRRSIWKNRTYACRHGGKCLVAKEQRNACRSCRLTRCLDVGMNPRAVQGDTVEDPEWDEEAMPETLSISTQTDALKVKKKSHTSLFTLDIKKEQIIDNLRAIYARTDPEEFWKLTYPGTYDFRYAFHNTKVVSPRTPLTPTAERIATLNDVVADFRRAFVLFVDILKSIDQLRDVQEDDKMKIAKSRFAAFYWWLCSTWSAKAGCNGVCYSNGSYHPASISDMPKSEGKHGVRIDYSGVSQKSLENLVEPLRRMELSDEERIVGAVMVILADPVPNVSTKTEKILAEARDFYLELLGYCIKLPEEQQGIRVSTMVLLLASIMELVHLTTDNIQLSDVLHVIDLGDWSQELRDHRYRRQF", "soluble on expression in E. coli": "not soluble"}
{"sequence": "MDLLERLGLGGRRVLILHHDDLGLTHAQNGAYQALGLPTGSVMVPGAWASGVKGEDLGVHLVLTSEWPAPRMRPLTEGESLRDEAGYFPESLEALWRKARAEEVERELKAQIQAAAKLFSPTHLDAHQGAVLRPDLAEVYLRLAEAYRLVPLVPESLEGLGVPPPFLPELERLLYETPFPQVRFLDPYGLPPEERLGFYLDLAHLPPGLYYLVHHSALPTPEGRALPDWPTREADYFALSHPEVRRVLAEFHPLTWRAVREALF", "soluble on expression in E. coli": "soluble"}
{"sequence": "MDSARALIARGWGVSLVSRCLRVSRAQLHVILRRTDDWMDGRRSRHTDDTDVLLRIHHVIGELPTYGYRRVWALLRRQAELDGMPAINAKRVYRLMRQNALLLERKPAVPPSKRAHTGRVAVKESNQRWCSDGFEFCCDNGERLRVTFALDCCDREALHWAGTTGGFNSETVQDVMLGAVERRFGNDLPSSPVEWLTDNGSCYRANETRQFARMLGLEPKNTAVRSPESNGIAESFVKTIKRDYISIMPKPDGLTAAKNLAEAFEHYNEWHPHSALGYRSPREYLRQRACNGLSDNRCLEI", "soluble on expression in E. coli": "not soluble"}
{"sequence": "AHHHHHHGSKLTHVDEKGVKMVEVGHKKDMYRRAIAKGRIKLKPETIKLIREGKIEKGNVLAAAQIAGILAVKKTFDIIPLCHPIPLTGVDITFDFGEDYIEVTCEVRAIYKTGVEMEALTGVSVALLTIWDMVKAVEKDEKGQYPYTKIEEIRVVEKIKEERS", "soluble on expression in E. coli": "soluble"}
{"sequence": "MNKVLINDTTLRDGEQAAGVVFTLEEKVAIAKFLDTIGVPELEVGIPAMGEEEMRAICAISNLGLKANLLAWNRAVISDIKASVACGMERVHIAIPVSGIQIAAKFHGQWRVSLQRLKDCISFAVDQGLWVAVGGEDSSRADENFLLDVALYAQEWGASRFRFCDTVGVLDPFTTYGKVKLLVSALTIPVEVHTHNDFGMATANALAGIKAGASSVNTTVIGLGERAGNAALEEVVMAIKRIYGVDMGIDTPRLLELSQLVAAASGANVPPWKAIVGENTFAHESGIHAHGVLQNPDTYEPFAPEEVGWERRLVVGKHSGRHSVSNLLEQHGLEHHHHHH", "soluble on expression in E. coli": "soluble"}
{"sequence": "MKRIGVVLGRREATPLEFWVGVEGDGLLRLDDLVVVEGFHPQVGQVRFFGMVDHVAKVHEGESFDTDTFLAVEGKIPVSLAYVAHVSVTRILPEEFFPPDPGSPVYLAQEEDLELALYYDAMRNQRGSTKLPAGLLKNGEVAYLNLEFLNGVKGGHVNISGISGVAAKTSYATFLLKSLLESGVLEDAHQARVLLFNVKGEDLFFLDKPNARLTEEARKAYARLGLPATPFQSVAFLAPPKKAGYLPDVDTRLEGVEAYHWDLVQFCQRGLLPFLFADRAAMTNLGFLVAHVTEKLKRLAEGQKGPHLQVEDWPGGEASEGMSFDQLGKARLKSFSDLVRYLEYKLLGPETGEGEGDRGWTARQAKGTLEAFVRRLRSSVENVAHLVRGDRPGSPPDPLSGKAQVHVVDLAKLSPQAQMFVVGSLLKDLFERKERGQYRGRVFIVLDELNKYAPREEESPIKDVLLDIAERGRSLGVILIGAQQTASEVERRVVGNAAIRVVGRLDAAEAERPEYRYLPTSFRQRALILPQGAVILHQPEIPVPLLVHFPFPAWATKREEVLEDNSAEALRREFFR", "soluble on expression in E. coli": "soluble"}
{"sequence": "MPAFVDLEELLATRLLVQGNSGSGKSHLLRRLLEQSSSWVQHCVIDPEGDFVTLADKFGHVIVEAQRSEQELMRIAYRIRQHRVSVVLNLEGLDTEQQMRAVGTFLGALFDVERDYWYPMLVVVDEAQLFAPAVAGEVSDEARKISLSAMTNLMCRGRKRGLAGVIATQRLAKLAKNVAAEASNFLIGRTFLDIDMVRAADLLGMERRQAEMFRDLERGHFVALGPALSRRSLRIIIGSVETLARSSSPKLMPLPKERVDVKELVFTASQEEILIPFKQSREPVKEKSIHAILEKAVNKKRELLAENSSLFPELSVVDRDLQAECIIREILEDPEAFYRSTAVLYQDFLVRCRIHGLSGDFLNLSQFRRKLAIAQACVDKETAVSENWKRILYISESLEDDVQGVFLNVAQAALGGKPCPSDAFLARLYGTHSLSRARRLLTYFEERGLIVIHTHFSGQRIIAFPDLGVETAPGDPKEPI", "soluble on expression in E. coli": "not soluble"}
{"sequence": "MGSDKIHHHHHHMYIRPFDPWKSKLCTCPFKYTLNPYTGCDHACVYCYITSYIPNAFKVRPKKNLLIQVERELRKFDKRYIIAMSYSSDPYPTIEKELGITRKVLELFRRYDVRCLILTKSDIFERDIDILKELRCAVGVTVTTIDERKAKLLEPNAPLPKDRIRALKKAKKEGIPVYARVDPIIPFYTWEDFRKTVDALSFVSHITVSTLKLRPDIKARMRAKFPELMKKLEPLYTERYEGYAYLRKDMRFRILNEARKIIEGKGITFGSCREGYYSYPTCDGSHLVP", "soluble on expression in E. coli": "not soluble"}
{"sequence": "MSHSVPNALMTGADYLDSLRDGRQVYLNGERVADVTRHRAFRNACRSIAGLYDGLHGEQRDVLTRVDAQGRRSHRFFTPAQNAEDLLGAREAIGCWSRMTYGFMGRTPDYKAAFMSGLEAGAGFYGDYRHNACAWHRAFADRGLFLNHAIINPPLDRSKAIHEMRDVFVHVERETDQGIVVSGAKMLATGSAITNATFVAPVASAQMEAGKAEDFAVVFFARMDNPGLRLMCRPSYEERASSPFDYPLSSRFDENDSVLLFDKALIPWEDVLVYRDLRRATGFYAESGFANLYNFQSGIRLGVKLELMIGLLSLGVRANGTQSFRGIQAALGELIALQHLLQALTTAMARDPERNAAGSAVPRLEYANALRIQVPQIWKRVRELLESALGGAPLVTVSGAADLRDGEARRLVDSYYRGAELEPEQRLKLFKLIWDATGSEFGARHAVYESHYSGNAEQIRLDSLAWASRRGHLAYCEAMVQRCMADYDIHGWLRGPWQHD", "soluble on expression in E. coli": "not soluble"}
{"sequence": "MGSDKIHHHHHHMRKDEYRATLLEPNVWHIADYRGDSMYLVVGEEKALLVDTGMGEGDLKGFVRSITEKPVEVVLTHAHWDHIMQANQFEKVYLNHRDFQIIELFKINVNYENFLNVKEGDRFDLGGRTLEVIEVPGHTPGSIVLLDRENRLLFSGDSVGAGHTWMHLPGCLPLREYLKSLKKLKETDSFEKIYHGHLTGTQLKPFGPDYLDDLIKAVEGVIDGSLRGEP", "soluble on expression in E. coli": "not soluble"}
{"sequence": "MGSDKIHHHHHHACTDDSNDVVATTSEVIEQAEVPFSVVLKAMNSDGNDITTKGEVNGATLFVFDQNNDFFEQINVNKSTILSRRAIDINCPNSNDITVIAWSGINSGNEEISNMSKANIISDLQVSLKENNGIANIPSDLFYGQVTLHKNSSTKSTVSNELQIIRKTSIFQLSTKGLIKYLGSNAGNFEYRIKNTKSSLDYNGNPTGEEVEFAFPASFDEKGNLTTETQAIFPAQNITVELYKDGNLIFSSEKDKNGELFAATPGKRTEITFKYSGEVSANITIADWATVIQHITMN", "soluble on expression in E. coli": "not soluble"}
{"sequence": "MNADGWLADTRSSYDTVAVSYADQLRGALAGTPYLRAALELFAGMIHTAGGGPVADVGCGPGHVTAHLHGLGVDAFGIDLSPAMIDVARRDHPDLRFEVGSMTDLNLADASVTALLAFWSLIHVPDDAIPAVFGHFRRVVRPGGPLLLGFHIGDESRLKTEGYGGHPMKVHVHHRQPVQVTAWLRDAGFTVEAQWLLGLDGHIPGAVLFAHRQSLEHHHHHH", "soluble on expression in E. coli": "not soluble"}
{"sequence": "MGSDKIHHHHHHMKITWFGHACFALEMEGKTIVTDPFDESVGYPIPNVTADVVTESHQHFDHNAHHLVKGNFRVIDRPGAYTVNGVKIKGVETFHDPSHGRERGKNIVFVFEGEGIKVCHLGDLGHVLTPAQVEEIGEIDVLLVPVGGTYTIGPKEAKEVADLLNAKVIIPMHYKTKYLKFNLLPVDDFLKLFDSYERVGNILELFEKPKERKVVVMEVQ", "soluble on expression in E. coli": "soluble"}
{"sequence": "MADKKEKLFSDFSPVSTEQWMEKVTADLKGADFEKKLVWKTNEGFKVKPFYRMEDLEGLKTTDALPGEFPYLRGTKKSNNEWLVRQEIKVECPKEANAKALDILNKGVDSLSFHVKAKELNAEYIETLLNGIQAECVELNFSTCQGHVVELAGLLVAYFQKKDYDVKKLRGSVNYDFFNKMLTRGKEKGDMVQTAKALIEAIQPLPFYRVLNVNAISLNNAGAYISQELGYALAWGNEYMNQLTDAGIPAATVAKKIKFNFGISSNYFLEIAKFRAARMLWANIVASYHPECLRDCDNKGANGECRCAAKMAVHAETSTFNLTLFDAHVNLLRTQTEAMSAALAGVDSMTVVPFDKTYSTPDEFSERLARNQQLLLKEESHFDKVIDPAAGSYYIENLTVSIAKQAWELFLAVEEAGGFYAALKAGTVQAAVNESNKARHKAVAQRREVLLGTNQFPNFNEKAGEKQPIEAKCCCGGDAHTCEKDVDTLVFDRAASEFEALRLETEASGKRPKAFMLTIGNLAMRQARAQYSCNFLACAGYEVIDNLGFETVEAGVEAAMAAKADIVVLCSSDDEYAEYAVPAFKALDGRAMFIVAGAPACMDELKAAGIENFIHVRVNVLDTLKEFNAKLLK", "soluble on expression in E. coli": "not soluble"}
{"sequence": "MQNMLSMHFFSVMASLNAMASMRVIVFLYQLSILGDCSTIDSLRDLMISQIVLAYNCISVHVNMYISTNGSEASIASRMSTLESCLFLITMNKGSASFGKRRFFYRDLA", "soluble on expression in E. coli": "soluble"}
{"sequence": "RWQEGNRITLLENGDQYYPALFAAIGRASRRVILESFIWFEDEVGRRLHAVLLEAARRGIQVEVLLDGYGSPDLSDEFVGELTAAGVIFRYYDPRPKLMGMRTNLFRRMHRKIVVIDDTTAFVGGINYSAEHMSDYGPEAKQDYAVQVEGPVVLDILQFELENLPNSETARRWWRRRRH", "soluble on expression in E. coli": "not soluble"}
{"sequence": "MGSDKIHHHHHHMRALLSGYYGKGNGGDEALLATLLQMLPSHVTPVVLSGNPEETSDRYGVESHNRMSLTSVLPALRSCDAFIWGGGSLIQDVTSSISPFYYGGLMALAQKMGLKTVAWAQGIGPLVRPQTRWLAQHNFSGCTTVSVRDRVSAALLADWQIPYILAPDPVWALQAKPFPELANLPTPRIAVTLRNHPQLTAPRLANLTQALVSLQKSTQAFILLLPFQKSEDLAIAQAIQPQLKDVSEIVCIEDPQILKGVFRGVEMAIGMRLHSLIMAASEGCRCFALSYDPKINRLMEDLAIPGWDLANLPDNANVISKTWIDFYTNAQPLASEKITTLVEGAFMHRELLRKALGRIN", "soluble on expression in E. coli": "not soluble"}
{"sequence": "MANSGEEKLKLYSYWRSSCAHRVRIALALKGLDYEYIPVNLLKGDQFDSDFKKINPMGTVPALVDGDVVINDSFAIIMYLDEKYPEPPLLPRDLHKRAVNYQAMSIVLSGIQPHQNLAVIRYIEEKINVEEKTAWVNNAITKGFTALEKLLVNCAGKHATGDEIYLADLFLAPQIHGAINRFQINMEPYPTLAKCYESYNELPAFQNALPEKQPDAPSSTI", "soluble on expression in E. coli": "soluble"}
{"sequence": "DPSEPGHADHLTAVMADAQPAIVLTNNASAAAVRRFFSALPGAQRPRIISIDSLPDTLAQSYQIPTPSMAAAAINPVDLPAFLQYTSGSTRTPAGVVLTNRSIVTNVLQIFAAAQLKTPLRLVSWLPL", "soluble on expression in E. coli": "not soluble"}
{"sequence": "MSELDQLRQEAEQLKSQIREARKSANDTTLATVASNLEPIGRIQMRTRRTLRGHLAKIYAMHWASDSRNLVSASQDGKLIVWDSYTTNKVHAIPLRSSWVMTCAYAPSGSFVACGGLDNICSIYSLKTREGNVRVSRELPGHTGYLSCCRFLDDNQIVTSSGDMTCALWDIETGQQCTAFTGHTGDVMSLSLSPDFRTFISGACDASAKLWDIRDGMCKQTFPGHESDINAVAFFPSGNAFATGSDDATCRLFDIRADQELAMYSHDNIICGITSVAFSKSGRLLFAGYDDFNCNVWDSMRQERAGVLAGHDNRVSCLGVTEDGMAVCTGSWDSFLKIWN", "soluble on expression in E. coli": "soluble"}
